The labels stand for the following.
B1: glmS ribozyme (parent)
chain: AUAAAAGCGCCAGAACUACAGAAAUGUAGUUGACGAGGAGGAGGUUUAUCGAAUUUUCGGCGGAUGCCUCCAAA

± gives the standard error. Fewer inactive variants are shown than the library holds. A value given as a limit tells only on which side of the number the result lay.

The first data set covers variants of B1. Description: self-cleavage kobs at 640 uM GlcN6P; higher = faster cleavage; RNA array. The following applies: with glucosamine-6-phosphate. The procedure, abridged:
(§1)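 Glucosamine-6-phosphate (40 μM to 10 mM) in HEPES/KCl/Mg(OAc)2 buffer was flowed over sequenced MiSeq chips, and tiles were imaged over ~14 h. Barcoded ribozyme variants there had been transcribed in situ by E. coli RNA polymerase and were tracked through a hybridised Cy3 probe at 37 °C. One- or two-exponential decay fits to per-tile medians, normalised to baseline and to non-cleaving reference variants, gave kobs. kcat and KM came from weighted Michaelis–Menten fits across concentrations.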
As for AUAAAAGCGCCAGAACUACAGAAAUGUAGUUGAGGAAGAGGAGGAUUAUCGAAUUUUAGGCGGAUGCCUCCAAA [C34G G37A U45A C58A], the “self-cleavage kobs at 640 uM GlcN6P” value was less than 1e-05 s⁻¹.
The same measure, in the same setting: the same measure for AUAAAAGCGCCAGAACUACAGAAAUGUAGUGGACGAGGAGGAGGUUUAUCGAAUUUUCGGCAGAUGCCUCCAAA [U31G G62A]: less than 1e-05 s⁻¹; for AUAAAUGCGCCAGAACUACAGAAAUGUAGUUGACCAGGAGGAGGUUUAUCGAAUUUUCGGCGGAUGCGUUCAAA [A6U G35C C68G C70U]: 0.000713 ± 0.00023 s⁻¹; for AUAAAAGCGCCGGAACUACAGAAAUGUAGUUUACGAGGAGGAGCUUUAUCGAAUUUUCGACGGAUGCCUGCAAA [A12G G32U G44C G60A C70G]: less than 1e-05 s⁻¹.
Consider AUAAAAGCGCCAGAACUACAGAAAUGUAAUUGUCGAGGAGGAGUUUUAUCGAAUUUUCGGCGGAUGCCUCCAAA [G29A A33U G44U], for which the “self-cleavage kobs at 640 uM GlcN6P” value is less than 1e-05 s⁻¹.
Still for that read-out and setting: the same measure for AUAAAAGCGCCAUAACUACAGAAAUGUAUUUAACGAGGAGGAGGUUUAUCGAAUUUUCGGCGGAUGCCUCCAAA [G13U G29U G32A]: 0.000242 ± 7e-05 s⁻¹; for AUAAAAGCGCCCGAGCUACAGAAAUGUAGUUGACGAGGCGGAGGUUUAUCGAAUUUUCGGCGGAUGCCUCCAAA [A12C A15G A39C]: 5.62e-05 ± 1.6e-05 s⁻¹.
On the same count and under the same terms, the same measure for AUAAAAGCGCCAGAACUACAGAAAUGUAGUUGUCGAGGAGGAGGUUUAUCGAAUUUAUGGCGGAUGCCUAGAAA [A33U U57A C58U C70A C71G]: 9.76e-05 ± 2.5e-05 s⁻¹; for AUAAAAGCGCAAGAACUACAGAAAUGUAGUUGACGAGGUGGAGGCUUAUCCAAUUUUCGGUGGAUGCCUCCAAA [C11A A39U U45C G51C C61U]: less than 1e-05 s⁻¹; for AUAAAAGCGCCCGAACUACAGAAAUGUAGUUGACGAGGAGAAGGUUUCUCGAAUUUUCGGCGGAUGCCUCCAAA [A12C G41A A48C]: less than 1e-05 s⁻¹.
Consider AUAAAAGCGCCGGAACUACAGAAAUGUAGUUGAUGAGGAGGAGGUUUAUCGAAUUUUCGGCGGAUGCCUCCAAA [A12G C34U], for which the “self-cleavage kobs at 640 uM GlcN6P” value is less than 1e-05 s⁻¹.
The same measure, in the same setting: the same measure for AUAAAAGCGCCAGACCUACAGAAAUGUAGUCGGCGAGAAGGAGGUUUAUCGAAUUUUCGGCGGAUGCCUCCAAA [A15C U31C A33G G38A]: less than 1e-05 s⁻¹; for AUAAAAGCGCCAGAACUACAGAAAUGUAGUUGACGAGGAGGAGGCUUAUCGAUUUUUCGGCGGAUGGCUCCAAA [U45C A53U C67G]: 0.00389 ± 0.0016 s⁻¹; for AUAAAAGCGCCAGUACUACAGAAAUGUAGUCGACGAGGCGGAGGUUUAUCGAAUUUUCGGCGGAUGCCUCCAAA [A14U U31C A39C]: 7.42e-05 ± 1.4e-05 s⁻¹.
Still for that read-out and setting: the same measure for AUAAAAGCGCCAGAUAUACAGAAAUGUAGUUGACGAGGAGGAGGUUUAUCGAAUUUUCGGCGGAUGCCUCUAAA [A15U C16A C71U]: 0.000111 ± 3.7e-05 s⁻¹; for AUAAAAGCGCCUGAACUACAGAAAUGUAGUUGACGAGGAGGAGGUUUAUCGAAUUUUCGGCGGAUGGCUUCAAA [A12U C67G C70U]: 0.000172 ± 3.8e-05 s⁻¹; for AUAAAAGCGCCAGAACUACAGAAAUGUAGUUGACGAGGAGGAGGCUUAUAGAAUUCUCGGCGGAUGCCUCCAAA [U45C C50A U56C]: less than 1e-05 s⁻¹.
AUAAAAGCGCCAGAACUACAGAAAUGUAGUUGACGAGCAGUAGGUUUAUCGAAUUUUCGGCGGAUGUCUCCAAA [G38C G41U C67U]: the “self-cleavage kobs at 640 uM GlcN6P” value is less than 1e-05 s⁻¹.
Still for that read-out and setting: the same measure for AUAAAAGCGCCAGAACUACAGAAAUGUAGUUGACGAGGAGGGGGUUUAUCUAAUUUUCGGCGGAUGCCUUCAAA [A42G G51U C70U]: less than 1e-05 s⁻¹; for AUAAAAGCGCCACAACUACAGAAAUGUAGUUGACGAGGAGGAUGUUUAUCGAAUUUUCUGCGGAUGCCUCCAAA [G13C G43U G59U]: less than 1e-05 s⁻¹; for AUAAAAGCGCCAGAACUACAGAAAUGUAGUUGACGAGAAGGAGGUUUAUCGAAUUUUCGGUGGAUGCUUCCAAA [G38A C61U C68U]: less than 1e-05 s⁻¹.
Still for that read-out and setting: the same measure for AUAAAAGCGCCAGAACUACAGAAAUGUAGUUGACGCGGAUGAGGUUUAUCGAAAUUUCGGCGUAUGCCUCCAAA [A36C G40U U54A G63U]: less than 1e-05 s⁻¹; for AUAAAAGCGCCAGAACUACAGAAAUGUAGUUGACGAGGAGGAGGGGUAUCGAAUCUUCGGCGAAUGCCUCCAAA [U45G U46G U55C G63A]: less than 1e-05 s⁻¹; for AUAAAAGCGCCAGAACUACAGAAAUGUAGUGUACGAGGAGGAGGUUUAUCGAUUUUUCGGCGGGUGCCUCCAAA [U31G G32U A53U A64G]: 0.000197 ± 6.1e-05 s⁻¹.
The same measure, in the same setting: the same measure for AUAAAAGCGCCAGAACUACAGAAAUGUAGUUUACGAGGAGUAGGUUUAUCGGAUUUUCGACGGAUGCCUCCAAA [G32U G41U A52G G60A]: less than 1e-05 s⁻¹.

The variants in another data set derive from B1. Description: self-cleavage kobs at 2500 uM GlcN6P; higher = faster cleavage; RNA array. The following applies: with glucosamine-6-phosphate. The procedure, abridged: as §1
As for AUAAAAGCGCCCGAGCUACAGAAAUGUAGUUGACGAGGCGGAGGUUUAUCGAAUUUUCGGCGGAUGCCUCCAAA [A12C A15G A39C], the “self-cleavage kobs at 2500 uM GlcN6P” value was 0.000163 ± 4.9e-05 s⁻¹.
The same measure, in the same setting: the same measure for AUAAAAGCGCAAGAACUACAGAAAUGUAGUUGACGAGGUGGAGGCUUAUCCAAUUUUCGGUGGAUGCCUCCAAA [C11A A39U U45C G51C C61U]: less than 1e-05 s⁻¹; for AUAAAAGCGCCAGUACUACAGAAAUGUAGUCGACGAGGCGGAGGUUUAUCGAAUUUUCGGCGGAUGCCUCCAAA [A14U U31C A39C]: 0.000324 ± 6.8e-05 s⁻¹; for AUAAAAGCGCCAGAUAUACAGAAAUGUAGUUGACGAGGAGGAGGUUUAUCGAAUUUUCGGCGGAUGCCUCUAAA [A15U C16A C71U]: 0.000598 ± 0.00019 s⁻¹.
On the same count and under the same terms, the same measure for AUAAAAGCGCCUGAACUACAGAAAUGUAGUUGACGAGGAGGAGGUUUAUCGAAUUUUCGGCGGAUGGCUUCAAA [A12U C67G C70U]: 0.000623 ± 0.00017 s⁻¹; for AUAAAAGCGCCACAACUACAGAAAUGUAGUUGACGAGGAGGAUGUUUAUCGAAUUUUCUGCGGAUGCCUCCAAA [G13C G43U G59U]: less than 1e-05 s⁻¹.
Still for that read-out and setting: the same measure for AUAAAAGCGCCAGAACUACAGAAAUGUAGUUGACGCGGAUGAGGUUUAUCGAAAUUUCGGCGUAUGCCUCCAAA [A36C G40U U54A G63U]: less than 1e-05 s⁻¹.
For AUAAAAGCGCCAGAACUACAGAAAUGUAGUUGACGAGGAGGAGGGGUAUCGAAUCUUCGGCGAAUGCCUCCAAA [U45G U46G U55C G63A], the “self-cleavage kobs at 2500 uM GlcN6P” value was less than 1e-05 s⁻¹.

A further data set covers variants of B1. Description: self-cleavage kobs at 10000 uM GlcN6P; higher = faster cleavage; RNA array. The following applies: with glucosamine-6-phosphate. The procedure, abridged: as §1
For the variant AUAAAAGCGCCGGAACUACAGAAAUGUAGUUGAUGAGGAGGAGGUUUAUCGAAUUUUCGGCGGAUGCCUCCAAA [A12G C34U], the “self-cleavage kobs at 10000 uM GlcN6P” value was less than 1e-05 s⁻¹.
In the case of AUAAAAGCGCCAGACCUACAGAAAUGUAGUCGGCGAGAAGGAGGUUUAUCGAAUUUUCGGCGGAUGCCUCCAAA [A15C U31C A33G G38A], the “self-cleavage kobs at 10000 uM GlcN6P” value was less than 1e-05 s⁻¹.
The same measure, in the same setting: the same measure for AUAAAAGCGCCAGUACUACAGAAAUGUAGUCGACGAGGCGGAGGUUUAUCGAAUUUUCGGCGGAUGCCUCCAAA [A14U U31C A39C]: 0.000464 ± 6e-05 s⁻¹; for AUAAAAGCGCCAGAACUACAGAAAUGUAGUUGACGCGGAUGAGGUUUAUCGAAAUUUCGGCGUAUGCCUCCAAA [A36C G40U U54A G63U]: less than 1e-05 s⁻¹.

The record behind these values is the supplement of paper PMC7125110.
